Experimental data: article PMC3237451, “Missense Mutation in the Second RNA Binding Domain Reveals a Role for Prkra (PACT/RAX) during Skull Development”

Target: T1, His-RAX (S130P) (Mus musculus (cDNA from L929 cells), UniProt Q9WTX2 1-313, S130P)
T1 sequence: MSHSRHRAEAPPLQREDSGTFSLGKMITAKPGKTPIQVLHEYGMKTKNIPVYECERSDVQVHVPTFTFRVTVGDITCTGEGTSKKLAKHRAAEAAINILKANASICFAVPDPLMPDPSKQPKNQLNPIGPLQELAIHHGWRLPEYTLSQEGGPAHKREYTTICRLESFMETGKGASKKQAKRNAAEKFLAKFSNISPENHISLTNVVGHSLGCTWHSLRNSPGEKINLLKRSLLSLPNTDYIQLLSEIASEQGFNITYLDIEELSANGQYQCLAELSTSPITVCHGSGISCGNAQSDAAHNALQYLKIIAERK
Assay: EMSA; 20 mM Tris pH 7.5, 50 mM KCl, 2 mM MgCl2, 2 mM MnCl2, 5% glycerol; EMSA 15 min at room temperature, 5% acrylamide gel in 0.25x TBE run cold
Conditions: protein: recombinant; blunt

B1: 30-bp dsRNA probe (dsRNA)
RNA 1: GGGAACAAAAGCUGGGUACCGGGCCCCCCC
RNA 2: GGGGGGGCCCGGUACCCAGCUUUUGUUCCC
- binding result: no binding
